From patent US20090155164A1 (Amgen, published 2009)
Read-outs that look alike come from different tables or passages of the source. Values belong to the binder of their own block, whether it stands above or below them.

Assays:
[1] = target: T1, monomeric human c-fms (residues 1-512)-pHis (human, UniProt P07333 20-512); assay: Biacore, low resolution; hybridoma mAb captured on anti-human IgG, monomeric c-fms-pHis analyte at 125 nM
T1 construct: Construct stated as residues 1-512; signal stated as amino acids 1-19 and left out; also called human c-fms (1-512).pHIS; monomeric c-fms
Description: Anti-human IgG was immobilized on all four flow cells of a sensor chip using amine coupling. Crude hybridoma samples were diluted into halves and captured on the anti-IgG surface. […] Sequence lineage analyses were also performed on the 29 hybridomas (see, FIG. 2).

[2] = target: T2, cynomolgus monkey c-fms on primary bone marrow cells (cynomolgus monkey); assay: cell-based or functional assay
[3] = target: T3, human c-fms, full length, on cells (human, UniProt P07333 20-972); assay: cell-based or functional assay
[4] = target: T2, cynomolgus monkey c-fms on primary bone …; assay: cell-based or functional assay; remark: listed apart in the source
[5] = target: T3, human c-fms, full length, on cells; assay: cell-based or functional assay; remark: listed apart in the source

T1 sequence (P07333 20-512): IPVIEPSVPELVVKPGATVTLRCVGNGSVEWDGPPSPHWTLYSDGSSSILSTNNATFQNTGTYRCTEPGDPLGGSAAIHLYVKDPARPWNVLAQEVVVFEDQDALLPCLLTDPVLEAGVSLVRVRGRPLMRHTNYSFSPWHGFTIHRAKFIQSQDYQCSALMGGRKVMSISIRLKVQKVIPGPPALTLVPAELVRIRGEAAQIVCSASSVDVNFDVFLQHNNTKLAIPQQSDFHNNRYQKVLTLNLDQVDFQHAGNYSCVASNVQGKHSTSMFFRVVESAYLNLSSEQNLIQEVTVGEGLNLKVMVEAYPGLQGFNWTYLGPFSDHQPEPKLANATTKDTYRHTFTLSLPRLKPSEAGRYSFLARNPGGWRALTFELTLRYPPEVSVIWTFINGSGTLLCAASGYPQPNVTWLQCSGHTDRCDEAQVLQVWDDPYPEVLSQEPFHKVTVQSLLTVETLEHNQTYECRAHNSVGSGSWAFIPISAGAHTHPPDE
T3 sequence (P07333 20-972): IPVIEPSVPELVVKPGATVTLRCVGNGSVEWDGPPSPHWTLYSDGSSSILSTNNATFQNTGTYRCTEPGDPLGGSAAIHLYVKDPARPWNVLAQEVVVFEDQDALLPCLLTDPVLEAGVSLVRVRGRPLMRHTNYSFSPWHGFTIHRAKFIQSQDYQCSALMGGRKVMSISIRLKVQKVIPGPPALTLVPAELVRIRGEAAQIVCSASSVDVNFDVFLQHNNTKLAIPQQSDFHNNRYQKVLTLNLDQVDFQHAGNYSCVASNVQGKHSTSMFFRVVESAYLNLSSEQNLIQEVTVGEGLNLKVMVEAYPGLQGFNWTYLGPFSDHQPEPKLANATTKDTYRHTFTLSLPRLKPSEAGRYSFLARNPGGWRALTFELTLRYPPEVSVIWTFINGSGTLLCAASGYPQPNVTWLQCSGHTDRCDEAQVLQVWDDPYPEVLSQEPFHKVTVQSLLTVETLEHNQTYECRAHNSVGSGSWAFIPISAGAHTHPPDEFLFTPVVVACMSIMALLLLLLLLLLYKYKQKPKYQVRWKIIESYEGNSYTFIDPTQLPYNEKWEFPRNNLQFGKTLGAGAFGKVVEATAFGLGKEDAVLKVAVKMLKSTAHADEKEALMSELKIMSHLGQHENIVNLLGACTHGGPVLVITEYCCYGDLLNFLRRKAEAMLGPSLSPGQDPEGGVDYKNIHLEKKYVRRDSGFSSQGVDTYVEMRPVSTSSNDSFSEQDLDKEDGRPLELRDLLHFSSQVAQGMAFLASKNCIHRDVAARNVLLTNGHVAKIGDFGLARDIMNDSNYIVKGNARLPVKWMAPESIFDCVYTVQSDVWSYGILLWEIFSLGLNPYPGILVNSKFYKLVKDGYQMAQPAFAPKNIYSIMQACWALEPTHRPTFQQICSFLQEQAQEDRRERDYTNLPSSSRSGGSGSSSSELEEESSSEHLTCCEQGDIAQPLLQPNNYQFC

- Kd [1]: 5.6 nM
- koff [1]: 0.000338 s⁻¹
- kon [1]: 60500 M⁻¹ s⁻¹
- Cynomolgus bone marrow bioassay IC50 [2]: 0.053 nM
- AML-5 bioassay IC50 [3]: 0.027 nM
- Human CD14+ monocytes bioassay IC50 [3]: 0.067 nM
- Cynomolgus bone marrow bioassay IC50 [4]: 8 ng/mL
- AML-5 bioassay IC50 [5]: 4 ng/mL
- Human CD14+ monocytes bioassay IC50 [5]: 10 ng/mL
B1: anti-c-fms hybridoma antibody 2.360 (antibody, IgG2, V domains shown)
VH: QVQLVQSGAEVKKPGASVKVSCKVSGYTLTELSMHWVRQAPGKGLEWMGGFDPEDGETIYAQKFQGRVTMTEDTSTDTVYMELSSLRSEDTAVYYCATGVMITFGGVIVGHSYYGMDVWGQGTTVTVSS
VL: DIQMTQSPSSLSASVGDRVTITCRASQGINNYLAWYQQKPGKVPQLLIYVASTLQSGVPSRFSGSGSGTDFTLTISSLQPEDVATYYCQKYNSGPFTFGPGTKVDIK
notes: Hybridoma IgG2 (cohort 2)

- Kd [1]: 10 nM
- koff [1]: 0.000559 s⁻¹
- kon [1]: 55000 M⁻¹ s⁻¹
- Cynomolgus bone marrow bioassay IC50 [2]: 0.36 nM
- AML-5 bioassay IC50 [3]: 0.1 nM
- Cynomolgus bone marrow bioassay IC50 [4]: 54 ng/mL
- AML-5 bioassay IC50 [5]: 15 ng/mL
B2: anti-c-fms hybridoma antibody 1.143 (antibody, IgG1, V domains shown)
VH: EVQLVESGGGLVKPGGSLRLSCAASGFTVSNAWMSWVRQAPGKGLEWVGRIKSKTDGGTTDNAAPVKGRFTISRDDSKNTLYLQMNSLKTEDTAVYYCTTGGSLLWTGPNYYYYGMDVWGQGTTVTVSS
VL: DIQMTQSPSSLSASVGDRVTITCQASQDINNYLNWYQQKPGKAPKLLIYDTSNLEPGVPSRFSGSGSGTDFTFTISSLQPEDIATYYCQQYDNLLTFGQGTRLEIK
notes: Hybridoma IgG1 (cohort 1); also called 1.143.2; 1.143.1

- Kd [1]: 4.7 nM
- koff [1]: 0.0014 s⁻¹
- kon [1]: 300000 M⁻¹ s⁻¹
- Cynomolgus bone marrow bioassay IC50 [2]: 0.167 nM
- AML-5 bioassay IC50 [3]: 0.04 nM
- Human CD14+ monocytes bioassay IC50 [3]: 0.067 nM
- Cynomolgus bone marrow bioassay IC50 [4]: 25 ng/mL
- AML-5 bioassay IC50 [5]: 6 ng/mL
- Human CD14+ monocytes bioassay IC50 [5]: 10 ng/mL
B3: anti-c-fms hybridoma antibody 2.475 (antibody, IgG2, V domains shown)
VH: QVQLVESGGGVVQPGRSLRLSCAASGFTFISYGMHWVRQAPGKGLEWVAVIWYDGSNKYYADSVKGRFTISRDNSKNTLYLQMNSLRAEDTAVYYCADSSGDYYGMDVWGQGTTVTVSS
VL: DIQMIQSPSSLSASVGDRVTITCQASHDISNYLNWYQQKPGKAPKFLISDASNLETGVPSRFSGSGSGTDFTFTISSLQPEDIATYYCQQYDNLPLTFGGGTKVEIK
notes: Hybridoma IgG2 (cohort 2); also called 2.475.2
